US20090004190A1, “Rage Fusion Proteins And Methods Of Use” (priority 2006, published 2009)
“And” between values parts separate entries of the source, which are not always exact repeats. Equal values may be shown once.

Assays:
[1] = molecular target: T1, amyloid-beta (Abeta) (Amyloid Beta (1-40)) (Homo sapiens, UniProt P05067); test: In vitro ligand binding (ELISA) to immobilized amyloid-beta; conditions: ligand 5 micrograms per well; FIG. 7
T1 construct: Amyloid Beta (1-40) from Biosource; purchased Biosource
Experimental: For example, the RAGE fusion protein may be used in a binding assay to identify potential RAGE ligands. In one example embodiment of such a binding assay, a known RAGE ligand may coated onto a solid substrate (e.g., Maxisorb plates) at a concentration of about 5 micrograms per well, where each well contains a total volume of about 100 microliters (μL). The plates may be incubated at 4° C. overnight to allow the ligand to absorb. Alternatively, shorter incubation periods at higher temperature (e.g., room temperature) may be used. […] The RAGE fusion protein bound to the immobilized ligand may be detected in a variety of ways. […] The bound complex may be detected by adding the alkaline phosphatase substrate, para-nitrophenylphosphate (PNPP), and measuring conversion of PNPP to para-nitrophenol (PNP) as an increase in absorbance at 405 nm. […] In the absence of ligand (i.e., coating with only BSA) there was no increase in absorbance. […] Binding was detected by the addition of an immunodetection complex containing a monoclonal mouse anti-human IgG1 diluted 1:11,000 to a final assay concentration (FAC) of 21 ng/100 μL, a biotinylated goat anti-mouse IgG diluted 1:500, to a FAC of […], and an avidin-linked alkaline phosphatase. […]

[2] = tested on: S100b/RAGE-induced production of TNF-α in THP-1 cells; test: Inhibition of S100b/RAGE-induced production of TNF-α in THP-1 cells; format: cell-based; conditions: 10 μg protein, FIG. 10
Excerpt: Use of the RAGE fusion proteins of the present invention to modulate expression of the cellular effector TNF-α is shown in FIG. 10. THP-1 myeloid cells may be cultured in RPMI-1640 media supplemented with 10% FBS and induced to secrete TNF-α via stimulation of RAGE with S100b. When such stimulation occurs in the presence of a RAGE fusion protein, induction of TNF-α by S100b binding to RAGE may be inhibited.
Previous work has shown that the myeloid THP-1 cells may secrete TNF-α in response to RAGE ligands. In this assay, THP-1 cells were cultured in RPMI-1640 media supplemented with 10% FBS using a protocol provided by ATCC. […] The amount of TNF-α secreted by the THP-1 cells was measured 24 hours after the addition of the proteins to the cell culture using a commercially available ELISA kit for TNF-α (R&D Systems, Minneapolis, Minn.).

[3] = tested on: recurrent diabetes in NOD/LtJ mice with syngeneic islet transplants; test: Syngeneic islet transplantation in diabetic NOD mice; format: in vivo, mouse; conditions: 300 ug LD + 100 ug qod ip
Excerpt: Spontaneous autoimmune non-obese diabetic mice (NOD/LtJ) (12-25 weeks old) served as recipients for islet cells, while young pre-diabetic NOD/LtJ mice (6-7 weeks old) served as donors in syngeneic islet transplantation. Islets for transplantation were isolated as described above in Section A (Allogeneic Islet Transplantation).
Diabetic NOD/LtJ mice received islet grafts within 2 days of the diagnosis of diabetes. 500-600 freshly isolated islets (approximately 550 islet equivalents) from donor mice were picked up with an infusion set and transplanted into the subcapular space of the right kidney.
Test compounds were administered as soon as the islets were transplanted and continued for approximately 8 weeks.
Islet graft function was monitored by serial blood glucose measurements daily for the first 2 weeks after islet transplantation, followed by every other day thereafter. Reversal of diabetes was defined as blood glucose less than 200 mg/dl on two consecutive measurements. Percentage graft loss was determined when blood glucose exceeded 250 mg/dl on two consecutive measurements.

T1 sequence (P05067 672-711): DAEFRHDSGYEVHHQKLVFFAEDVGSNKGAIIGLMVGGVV

B1: TTP-4000: four domain RAGE fusion protein: human RAGE V and C1 domains with interdomain linkers (to residue 251) fused to human IgG1 CH2 and CH3; SEQ ID NO: 34/56 (protein, listed as Homo sapiens)
chain: QNITARIGEPLVLKCKGAPKKPPQRLEWKLNTGRTEAWKVLSPQGGGPWDSVARVLPNGSLFLPAVGIQDEGIFRCQAMNRNGKETKSNYRVRVYQIPGKPEIVDSASELTAGVPNKVGTCVSEGSYPAGTLSWHLDGKPLVPNEKGVSVKEQTRRHPETGLFTLQSELMVTPARGGDPRPTFSCSFSPGLPRHRALRTAPIQPRVWEPVPLEEVQLVVEPEGGAVAPPSVFLFPPKPKDTLMISRTPEVTCVVVDVSHEDPEVKFNWYVDGVEVHNAKTKPREEQYNSTYRVVSVLTVLHQDWLNGKEYKCKVSNKALPAPIEKTISKAKGQPREPQVYTLPPSRDELTKNQVSLTCLVKGFYPSDIAVEWESNGQPENNYKTTPPVLDSDGSFFLYSKLTVDKSRWQQGNVFSCSVMHEALHNHYTQKSLSLSPGK
B1 was tested, and the “binding to immobilized amyloid-beta (absorbance at 405 nm)” value [1] was “specifically interact”, the “blocking S100b induction of TNF-α compared with sRAGE” value [2] was “at least as effective” and the “reduction of S100b induction of TNF-α” value ([2]; S100b 0.1 mg/ml FAC, 24 hours) was roughly 70%. The “day of graft loss, Mean” value [3] was 39.875 days and the “day of graft loss, each animal” value ([3]; blood glucose exceeded 250 mg/dl) was 38 day (2×) and 40 day and 43 day and 36 day and 45 day and 44 day and 35 day.
